This is an account of results in paper PMC6306002.

For this data set, the system named is T1, OhsR:C125S C125S (Corynebacterium glutamicum), ORF:a3d30e29.
T1 sequence: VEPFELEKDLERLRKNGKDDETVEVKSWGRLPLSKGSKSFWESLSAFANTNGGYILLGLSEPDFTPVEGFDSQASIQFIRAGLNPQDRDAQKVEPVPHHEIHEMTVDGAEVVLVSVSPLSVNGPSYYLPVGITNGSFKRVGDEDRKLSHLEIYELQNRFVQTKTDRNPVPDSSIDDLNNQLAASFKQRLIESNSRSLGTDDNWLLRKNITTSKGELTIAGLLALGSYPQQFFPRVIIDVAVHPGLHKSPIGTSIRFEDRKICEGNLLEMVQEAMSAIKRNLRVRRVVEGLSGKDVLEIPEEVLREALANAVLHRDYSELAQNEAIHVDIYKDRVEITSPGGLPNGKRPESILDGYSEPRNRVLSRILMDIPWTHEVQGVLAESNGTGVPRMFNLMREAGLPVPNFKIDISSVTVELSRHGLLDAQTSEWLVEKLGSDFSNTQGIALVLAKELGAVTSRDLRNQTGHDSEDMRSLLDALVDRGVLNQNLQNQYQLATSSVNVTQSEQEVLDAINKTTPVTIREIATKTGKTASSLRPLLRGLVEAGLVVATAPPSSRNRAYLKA
Put plainly: EMSA. Conditions: EMSA: 20 mM Tris-HCl pH 7.4, 4 mM MgCl2, 100 mM NaCl, 10% glycerol, room temperature 30 min; 20 ng DNA, 0-4 ug OhsR; 6% native PAGE, 0.5x TBE, SYBR Green.

For the sequence “CACCTTGTTGGTGGGCCGGGATTTTTGTTGTTTAGATTTTTGAAAGCACACTTTTGTCCCTTAACTAGTGCGTGTGTACATTCGACACCAAGATTTGGGCAATATGGTGCCCAAAATCAGGAAATCTTGCTGTCTAATGCACAACGGAAAACTGCTCACGGACGAACTAGTTGTAGCGAGCGTATTCTTTGTGTTCTCTC (double strand) [Pohr (ohr promoter, 200 bp)]”, the binding result is on record as “no binding”.
